The text below walks through data of patent publication US12338268B2, “Compositions and methods for treating protein aggregation-associated diseases” (The Board of Trustees of the Leland Stanford Junior …, priority 2019, dated 2025).

Residue numbers refer to the chain shown, from its start.

The target of series [1] is T1, mutant Huntingtin exon 1 (mHttQ51) (Homo sapiens, UniProt P42858, INS38QQQQQQQQQQQQQQQQQQQQQQQQQQQQQQQ).
T1 construct: mutant Huntingtin exon 1 containing a pathogenic stretch of 51 glutamines (mHttQ51); GST (N, cleaved yes); made in house; host or cells: E. coli Rosetta 2(DE3) pLysS
Description: In vitro filter trap aggregation assay of mutant Huntingtin exon 1. Format: biochemical. To be noted: for mHttQ51 aggregation: 5× molar excess, 3 μM mHttQ51, filter trap, SDS-insoluble aggregates. The protocol:
(§1) Mutant Huntingtin and PolyQ51 aggregation reactions were performed at concentration 3 μM of mHttQ51, 0.044 Units/μl acTEV protease (Invitrogen, Carlsbad, CA, USA), and respective concentrations of Ovalbumin (Sigma) or purified NAC chaperone variants. Aggregation was conducted in TEV reaction buffer (Invitrogen) and incubated at 30° C. AtxQ78 was buffer exchanged into TEV reaction buffer using 7K MWCO Zeba Spin Desalting Columns (Thermo Fisher) to initiate aggregation. AtxQ78 aggregation reactions were performed at 30 μM of Ataxin-3 in reaction buffer (20 mM sodium phosphate pH 7.5, 25 mM NaCl, 6 mM MgCl2, 2 mM DTT, 5% (v/v) glycerol) and incubated at 37° C. Samples at varied time-points were then taken and combined in a 1:1 ratio with a 4% (w/v) SDS, 100 mM DTT solution, boiled for 5 min at 95° C., and stored at −20° C. Samples were then filtered through a 0.22 μm cellulose acetate membrane (Whatman) and washed with 0.1% (w/v) SDS. Membrane was probed using an S-tag antibody (Abcam) for mHttQ51 and PolyQ51, and with a His-tag antibody (Abcam) for AtxQ78.

Series [2] addresses T2, full-length Ataxin-3 (AtxQ78) (Homo sapiens, UniProt P54252, INS305QQQQQQQQQQQQQQQQQQQQQQQQQQQQQQQQQQQQQQQQQQQQQQQQQQQQQQQQQQQQQQQQ).
T2 construct: full-length Ataxin-3 harboring a stretch of 78 glutamines (AtxQ78); made in house
Nature of the series: Filter trap aggregation assay of AtxQ78. Format: biochemical. To be noted: equimolar (1×) NAC, 37° C. As for the experimental part: as §1

Series [3] has as its system PolyQ35::YFP. Nature of the series: PolyQ35::YFP aggregation in C. elegans overexpressing NAC (fluorescence microscopy, SDD-AGE). Format: in vivo. To be noted: overexpressed in body wall muscle cells (myo-3 promoter), day 3 of adulthood, fluorescence microscopy. From the text:
NAC is a major ribosome-binding factor interacting broadly with nascent chains (del Alamo et al., 2011). However, its assumed chaperone function is poorly investigated. […] Although loss of NAC causes pleiotropic defects in C. elegans (Gamerdinger et al., 2015), this finding raises the possibility that NAC directly exerts a chaperone function on aggregation-prone proteins. In this case, overexpression of NAC should prevent aggregation of PolyQ proteins in vivo. Therefore, we used a C. elegans strain expressing 35 consecutive glutamine residues fused to YFP (PolyQ35::YFP) in body wall muscle cells. This PolyQ length is close to the aggregation threshold in C. elegans muscle cells, leading to progressive, age-dependent aggregation starting at day 2 of adulthood (Morley et al., 2002). We generated transgenic animals that overexpress FLAG-tagged α- and βNAC under the control of the muscle-specific myo-3 promoter. PolyQ aggregation was assessed at day 3 of adulthood by fluorescence microscopy as well as semi-denaturing detergent agarose gel electrophoresis (SDD-AGE), which detects high molecular weight oligomeric PolyQ species (Halfmann and Lindquist, 2008). […] This is evident by magnification of the head regions showing diffuse PolyQ35::YFP and less punctate PolyQ35::YFP structures when NAC was overexpressed (FIG. 1A, head region images). […] To directly test the potential chaperone function of NAC, we employed a peptide composed of 51 consecutive glutamines (PolyQ51) as a model substrate in a well-established in vitro aggregation assay. We initiated aggregation of PolyQ51 by cleaving a solubilizing GST tag with TEV protease and detected aggregates over time using a filter trap assay.
Worms were cultured according to standard techniques with E. coli OP50 as food source (Brenner, 1974). Transgenic strains were generated using standard microinjection protocols (Mello and Fire, 1995). […]

For series [4], the target named is T3, Aβ40 (Homo sapiens, UniProt P05067).
T3 construct: Aβ40 peptide was expressed and purified as described previously; made in house; host or cells: E. coli BL21 (DE3)
Description: Thioflavin T fluorescence assay of Aβ40 aggregation. Format: biochemical. To be noted: equimolar NAC variant and Aβ40 (32 μM FIG. 4C; 18 μM FIG. 12C), 37° C., 20 h. The protocol:
Lyophilized Aβ40 was resuspended at 320 μM in 20 mM sodium phosphate pH 7.4, 0.2 mM EDTA, 0.01% (w/v) sodium azide and stored on ice. The NAC proteins were diluted to 100 μM in storage buffer (20 mM sodium phosphate pH 7.5, 25 mM NaCl, 6 mM MgCl2, 2 mM β-mercaptoethanol, 5% (v/v) glycerol) and buffer exchanged into 20 mM sodium phosphate pH 7.4, 0.2 mM EDTA, 0.01% (w/v) sodium azide, 1× complete mini protease inhibitor, EDTA free (Roche) by means of ZebaSpin 7 kDa MWCO spin columns (Thermo Scientific). Samples were prepared that contained equimolar concentrations of Aβ40 and NAC variants. Thioflavin T was added to a final concentration of 10 μM. The samples were transferred to a 96 well half-area clear bottom microplate (Corning GmbH, Wiesbaden, Germany), with 95 μL of sample in each well. The fluorescence (excitation: 440 nm, emission: 480 nm) was measured using a BMG Omega plate reader (BMG Labtech) incubating samples at 37° C., quiescently.

Series [5] has as its system PolyQ35::YFP C. elegans worms. Nature of the series: Paralysis assay. To be noted: overexpression; day 6 to 10 of adulthood. The series is classed as in vivo. As for the experimental part: To analyze the percentage of paralyzed worms, 100 semi-synchronized (timed egg lay for 5 h) young adult worms of each strain were placed on a plate containing 150 μM 5-fluorodeoxyuridine. Screening of paralyzed worms was started at day 6 of adulthood.

T1 sequence (P42858 with tags, fused parts or gaps with the stated changes limits assumed): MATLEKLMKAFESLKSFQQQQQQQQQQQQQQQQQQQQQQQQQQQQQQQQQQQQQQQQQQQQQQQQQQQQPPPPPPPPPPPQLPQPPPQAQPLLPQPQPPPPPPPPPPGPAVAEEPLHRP
T2 sequence (P54252 with tags, fused parts or gaps with the stated changes): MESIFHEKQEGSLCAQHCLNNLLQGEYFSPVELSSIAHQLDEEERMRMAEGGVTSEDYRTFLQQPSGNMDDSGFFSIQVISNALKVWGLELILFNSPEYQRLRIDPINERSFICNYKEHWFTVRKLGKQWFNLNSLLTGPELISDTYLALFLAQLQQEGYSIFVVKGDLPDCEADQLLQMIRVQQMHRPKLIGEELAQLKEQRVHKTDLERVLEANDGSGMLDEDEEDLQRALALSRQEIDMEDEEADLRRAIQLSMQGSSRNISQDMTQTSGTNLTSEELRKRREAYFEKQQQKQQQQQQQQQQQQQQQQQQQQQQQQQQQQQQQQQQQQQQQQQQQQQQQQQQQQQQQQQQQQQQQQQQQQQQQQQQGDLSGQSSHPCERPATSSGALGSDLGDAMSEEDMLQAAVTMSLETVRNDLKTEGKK

B1: ovalbumin: molar equivalent ovalbumin control protein (Sigma) (protein, UniProt P01012 2-386, looked up)
Ovalbumin: GSIGAASMEFCFDVFKELKVHHANENIFYCPIAIMSALAMVYLGAKDSTRTQINKVVRFDKLPGFGDSIEAQCGTSVNVHSSLRDILNQITKPNDVYSFSLASRLYAEERYPILPEYLQCVKELYRGGLEPINFQTAADQARELINSWVESQTNGIIRNVLQPSSVDSQTAMVLVNAIVFKGLWEKAFKDEDTQAMPFRVTEQESKPVQMMYQIGLFRVASMASEKMKILELPFASGTMSMLVLLPDEVSGLEQLESIINFEKLTEWTSSNVMEERKIKVYLPRMKMEEKYNLTSVLMAMGITDVFSSSANLSGISSAESLKISQAVHAAHAEINEAGREVVGSAEAGVDAASVSEEFRADHPFLFCIKHIATNAVLFFGRCVSP
For the molecule B1, the mHttQ51 aggregation result in series [1] is recorded as “little effect”.

B2: C. elegans NAC: purified recombinant C. elegans nascent polypeptide-associated complex (protein)
chain 1: MTGSTETRQKEVKEPQVDVSDDSDNEAVEQELTEEQRRVAEAAGLGDHIDKQAKQSRSEKKARKLFSKLGLKQVTGVSRVCIRKSKNILFVINKPDVFKSPGSDTYIIFGEAKIEDLTQHAQMSAIENLKPTREAPQLKTVEEDENEDVEEDSTGIEEKDIELVISQANTTRNKAIRALKEADNDIVNAIMSLTM
chain 2: MDSKAIAERIKKLQAQQEHVRIGGKGTPRRKKKVIHKTAAADDKKLQSNLKKLSVTNIPGIEEVNMIKDDGTVIHFNNPKVQTSVPANTFSVTGSADNKQITEMLPGILNQLGPESLTHLKKLANNVTKLGPDGKGEDEDVPELVGDFDAASKNETKADEQ
In the case of B2, in series [1], the mHttQ51 aggregation entry is given as “to a lesser extent”. Further, the AtxQ78 aggregation result in series [2] was “prevented AtxQ78 aggregation but was slightly less effective than the human isoform”.

B3: RRK/AAA-NAC: NAC with mutation in the conserved ribosome-binding motif in the N-terminus of βNAC; ribosome-binding deficient (protein)
chain 1: B2 chain 1
chain 2: B2 chain 2 with R29A, R30A, K31A
As for B3, the “PolyQ35::YFP aggregation” value in series [3] was “suppressed PolyQ35::YFP aggregation similarly to WT-NAC”. In addition, the mHttQ51 aggregation result in series [1] is “delayed mHttQ51 aggregation similar to wild-type NAC”. The “Aβ40 aggregation (ThT fluorescence)” value in series [4] is on record as “fully suppressed Aβ40 aggregation”. In series [5], the “motility / age-associated paralysis of PolyQ35::YFP-expressing worms” value is recorded as “still improved motility during aging albeit less effective than WT-NAC”.

B4: ApiCCT1: the 140 amino acid apical domain of CCT1 (protein)
chain: MVPGYALNCTVASQAMPKRIAGGNVKIACLDLNLQKARMAMGVQINIDDPEQLEQIRKREAGIVLERVKKIIDAGAQVVLTTKGIDDLCLKEFVEAKIMGVRRCKKEDLRRIARATGATLVSSMSNLEGEETFESSYLGLCDEVVQAKFSDDECILIKGTSKAAAAALEHHHHHH
Turning to B4, the “polyQ aggregation of huntingtin exon1” value in series [1] (system with purified components) is “specifically and efficiently inhibits polyQ aggregation of huntingtin exon1”.
